We go through 1 variant from IntAct's records for PubMed 20581830.

B1: Interferon regulatory factor 3 (Homo sapiens), Q14653 (parent)
chain: MGTPKPRILPWLVSQLDLGQLEGVAWVNKSRTRFRIPWKHGLRQDAQQEDFGIFQAWAEATGAYVPGRDKPDLPTWKRNFRSALNRKEGLRLAEDRSKDPHDPHKIYEFVNSGVGDFSQPDTSPDTNGGGSTSDTQEDILDELLGNMVLAPLPDPGPPSLAVAPEPCPQPLRSPSLDNPTPFPNLGPSENPLKRLLVPGEEWEFEVTAFYRGRQVFQQTISCPEGLRLVGSEVGDRTLPGWPVTLPDPGMSLTDRGVMSYVRHVLSCLGGGLALWRAGQWLWAQRLGHCHTYWAVSEELLPNSGHGPDGEVPKDKEGGVFDLGPFIVDLITFTEGSGRSPRYALWFCVGESWPQDQPWTKRLVMVKVVPTCLRALVEMARVGGASSLENTVDLHISNSHPLSLTSDQYKAYLQDLVEGMDFQGPGES

The assay covers variants of B1. The settings on record: with cbp_human CREBBP.
On to MGTPKPRILPWLVSQLDLGQLEGVAWVNKSRTRFRIPWKHGLRQDAQQEDFGIFQAWAEATGAYVPGRDKPDLPTWKRNFRSALNRKEGLRLAEDRSKDPHDPHKIYEFVNSGVGDFSQPDTSPDTNGGGSTSDTQEDILDELLGNMVLAPLPDPGPPSLAVAPEPCPQPLRSPSLDNPTPFPNLGPSENPLKRLLVPGEEWEFEVTAFYRGRQVFQQTISCPEGLRLVGSEVGDRTLPGWPVTLPDPGMSLTDRGVMSYVRHVLSCLGGGLALWRAGQWLWAQRLGHCHTYWAVSEELLPNSGHGPDGEVPKDKEGGVFDLGPFIVDLITFTEGSGRSPRYALWFCVGESWPQDQPWTKRLVMVKVVPTCLRALVEMARVGGASSLENTVDLHIDNDHPLDLDDDQYKAYLQDLVEGMDFQGPGES [S396D;S398D;S402D;T404D;S405D], for which the “effect of a mutation on the interaction” value is on record as “increasing interaction strength”.
